Experimental data as given in patent US20250122303A1 (HUMMINGBIRD BIOSCIENCE PTE, published 2025).
Like-named read-outs stand apart in the source and are kept apart here. One block for each binder: values may come before it.

Key:
[1] = biological target: T1, human HER3 expressed on cells (HEK293 HER3 O/E cells) (human, UniProt P21860 20-1342); test: flow cytometry, HEK293 cells overexpressing human HER3, 20 ug/ml antibody, FITC anti-Fc secondary; same antibody on WT HEK293: 17.31
T1 construct: Also used here for HER3 on U2OS cells of the PathHunter kit and on cancer cell lines; also called HEK293 cells transfected with vector encoding human HER3; human HER3-expressing cells
Experimental: (§1) The cells were washed thrice with FACS buffer (PBS with 5 mM EDTA and 0.5% BSA) and resuspended in FITC-conjugated anti-FC antibody (Invitrogen, USA) for 40 min at 2-8° C. Cells were washed again and resuspended in 200 μL of FACS flow buffer (PBS with 5 mM EDTA) for flow cytometric analysis using MACSQuant 10 (Miltenyi Biotec, Germany). After acquisition, all raw data were analyzed using Flowlogic software. Cells were gated using forward and side scatter profile percentage of positive cells was determined for native and overexpressing cell populations.

rat HER3 = biological target: T2, rat HER3 (rat, UniProt Q62799 20-641, limits assumed); test: ELISA, plate coated with 0.1 ug/ml rat HER3, antibody titrated, absorbance 450 nm
T2 construct: also called rat homologue of HER3 (Sino Biological Inc.); R. norvegicus HER3
T2 sequence (Q62799 20-641 limits assumed): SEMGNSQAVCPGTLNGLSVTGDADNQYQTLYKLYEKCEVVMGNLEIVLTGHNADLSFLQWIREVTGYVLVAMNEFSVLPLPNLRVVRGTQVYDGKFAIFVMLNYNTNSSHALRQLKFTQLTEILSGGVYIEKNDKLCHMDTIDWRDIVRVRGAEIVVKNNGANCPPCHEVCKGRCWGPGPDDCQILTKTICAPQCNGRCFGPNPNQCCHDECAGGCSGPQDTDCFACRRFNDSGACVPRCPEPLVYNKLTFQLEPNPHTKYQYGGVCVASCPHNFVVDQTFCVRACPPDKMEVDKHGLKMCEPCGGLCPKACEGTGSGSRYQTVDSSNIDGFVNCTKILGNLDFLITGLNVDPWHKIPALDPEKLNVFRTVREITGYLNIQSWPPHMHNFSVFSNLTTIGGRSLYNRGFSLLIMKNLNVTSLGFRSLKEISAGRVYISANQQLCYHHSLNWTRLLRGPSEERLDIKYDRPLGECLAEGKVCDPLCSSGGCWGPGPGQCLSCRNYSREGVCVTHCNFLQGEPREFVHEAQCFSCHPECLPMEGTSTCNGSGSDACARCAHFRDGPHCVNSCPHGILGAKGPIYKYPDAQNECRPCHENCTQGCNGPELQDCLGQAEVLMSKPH
Experimental: (§2) ELISAs were used to determine the binding specificity of the antibodies. The antibodies were analysed for binding to human HER3 polypeptide, as well as respective mouse, rat and monkey homologues of HER3 (Sino Biological Inc., China). The antibodies were also analysed for their ability to bind to human EGFR and human HER2 (Sino Biological Inc., China).
(§3) ELISAs were carried out according to standard protocols. Briefly, 96-well plates (Nunc, Denmark) were coated with 0.1 μg/ml of target polypeptide in phosphate-buffered saline (PBS) for 16 h at 4° C. After blocking for 1 h with 1% BSA in Tris buffer saline (TBS) at room temperature, the anti-HER3 antibody was serially diluted with the highest concentration being 10 μg/ml, and added to the plate. Post 1 h incubation at room temperature, plates were washed three times with TBS containing 0.05% Tween 20 (TBS-T) and were then incubated with a HRP-conjugated […] antibody (Life Technologies, Inc., USA) for 1 h at room temperature. After washing, plates were developed with colorimetric detection substrate 3,3′,5,5′-tetramethylbenzidine (Turbo-TMB; Pierce, USA) for 10 min. The reaction was stopped with 2M H₂SO₄, and OD was measured at 450 nm.

human EGFR = biological target: T3, human EGFR (human, UniProt P00533 25-645); test: ELISA, plate coated with 0.1 ug/ml human EGFR, antibody titrated, absorbance 450 nm
T3 construct: also called human HER1 (EGFR) (Sino Biological Inc.)
Experimental: as §2, §3

mouse HER3 = biological target: T4, mouse HER3 (mouse, UniProt Q61526 20-641); test: ELISA, plate coated with 0.1 ug/ml mouse HER3, antibody titrated, absorbance 450 nm
T4 construct: also called mouse homologue of HER3 (Sino Biological Inc.); M. musculus HER3
T4 sequence (Q61526 20-641 limits assumed): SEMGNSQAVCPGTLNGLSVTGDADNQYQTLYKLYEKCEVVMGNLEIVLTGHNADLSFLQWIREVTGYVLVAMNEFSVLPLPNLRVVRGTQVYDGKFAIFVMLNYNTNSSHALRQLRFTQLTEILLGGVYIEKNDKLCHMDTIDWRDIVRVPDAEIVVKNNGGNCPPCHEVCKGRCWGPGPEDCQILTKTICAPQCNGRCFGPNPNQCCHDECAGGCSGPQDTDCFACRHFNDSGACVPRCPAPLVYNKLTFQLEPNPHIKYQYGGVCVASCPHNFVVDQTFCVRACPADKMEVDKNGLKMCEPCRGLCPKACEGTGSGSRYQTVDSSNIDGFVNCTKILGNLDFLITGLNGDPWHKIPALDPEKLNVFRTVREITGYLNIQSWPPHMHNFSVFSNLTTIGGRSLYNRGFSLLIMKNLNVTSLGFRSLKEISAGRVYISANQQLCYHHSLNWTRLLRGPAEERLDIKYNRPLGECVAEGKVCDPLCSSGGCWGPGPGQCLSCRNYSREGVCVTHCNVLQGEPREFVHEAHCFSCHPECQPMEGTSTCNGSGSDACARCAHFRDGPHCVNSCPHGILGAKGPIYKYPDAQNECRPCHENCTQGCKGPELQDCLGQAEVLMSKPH
Experimental: as §2, §3

human HER2 = biological target: T5, human HER2 (human, UniProt P04626 23-652); test: ELISA, plate coated with 0.1 ug/ml human HER2, antibody titrated, absorbance 450 nm
T5 construct: also called human HER2 (Sino Biological Inc.)
Experimental: as §2, §3

His-tagged human HER3 [2] = biological target: T6, His-tagged human HER3 (human, UniProt P21860 20-643); test: BLI (Octet QK384), antibody on anti-human IgG capture tips, His-tagged human HER3 in solution, global one-site fit
T6 construct: Antigen of the BLI experiments and of the HER2-Fc dimerisation ELISA; also called HER3 His; not shown: His tag
Experimental: (§4) The anti-HER3 antibody clones in IgG1 format were analysed for binding affinity to human HER3. Bio-Layer Interferometry (BLI) experiments were performed using the Octet QK384 system (ForteBio). anti-Human IgG Capture (AHC) Octet sensor tips (Pall ForteBio, USA) were used to anti-HER3 antibodies (25 nM). All measurements were performed at 25° C. with agitation at 1000 rpm. […] Sensograms were referenced for buffer effects and then fitted using the Octet QK384 user software (Pall ForteBio, USA). Kinetic responses were subjected to a global fitting using a one site binding model to obtain values for association (Kₒₙ), dissociation (Koff) rate constants and the equilibrium dissociation constant (KD). Only curves that could be reliably fitted with the software (R²>0.90) were included in the analysis.

[3] = biological target: T1, human HER3 expressed on cells (HEK293 …); test: flow cytometry, HEK293 cells overexpressing human HER3, 20 ug/ml antibody, FITC anti-Fc secondary; same antibody on WT HEK293: 17.31; remark: listed apart in the source
Experimental: as §1

His-tagged human HER3 [4] = biological target: T6, His-tagged human HER3; test: BLI (Octet QK384), antibody on anti-human IgG capture tips, His-tagged human HER3 in solution, global 1:1 fit, R^2 = 0.9946, kon Error 5.99E+03; Response 0.119 / 0.2877 / 0.4777 / 0.6639 at 35 / 69 / 139 / 278 nM
Experimental: as §4

His-tagged human HER3 [5] = biological target: T6, His-tagged human HER3; test: BLI (Octet QK384), antibody on anti-human IgG capture tips, His-tagged human HER3 35-278 nM, global 1:1 fit
Experimental: as §4

His-tagged human HER3 [6] = biological target: T6, His-tagged human HER3; test: BLI (Octet QK384), antibody on anti-human IgG capture tips, His-tagged human HER3 in solution, global 1:1 fit, R^2 = 0.9915, kon Error 7.36E+03; Response 0.114 / 0.2569 / 0.4134 / 0.5768 at 35 / 69 / 139 / 278 nM
Experimental: as §4

His-tagged human HER3 [7] = biological target: T6, His-tagged human HER3; test: BLI (Octet QK384), antibody on anti-human IgG capture tips, His-tagged human HER3 in solution, global 1:1 fit, R^2 = 0.9954, kon Error 4.57E+03; Response 0.0786 / 0.1929 / 0.3283 / 0.5147 at 35 / 69 / 139 / 278 nM
Experimental: as §4

His-tagged human HER3 [8] = biological target: T6, His-tagged human HER3; test: BLI (Octet QK384), antibody on anti-human IgG capture tips, His-tagged human HER3 35-278 nM, global 1:1 fit; kdis Error 1.00E-04
Experimental: as §4

His-tagged human HER3 [9] = biological target: T6, His-tagged human HER3; test: BLI (Octet QK384), antibody on anti-human IgG capture tips, His-tagged human HER3 in solution, global 1:1 fit, R^2 = 0.9957, kon Error 3.54E+03; Response 0.0338 / 0.0911 / 0.1967 / 0.3885 at 35 / 69 / 139 / 278 nM
Experimental: as §4

His-tagged human HER3 [10] = biological target: T6, His-tagged human HER3; test: BLI (Octet QK384), antibody on anti-human IgG capture tips, His-tagged human HER3 35-278 nM, global 1:1 fit; kdis Error 1.16E-04
Experimental: as §4

His-tagged human HER3 [11] = biological target: T6, His-tagged human HER3; test: BLI (Octet QK384), antibody on anti-human IgG capture tips, His-tagged human HER3 in solution, global 1:1 fit, R^2 = 0.9951, kon Error 5.36E+03; Response 0.0037 / 0.1082 / 0.2868 / 0.3903 at 35 / 69 / 139 / 278 nM
Experimental: as §4

- % Parent (HE3 positive) [1]: 43.2%
- binding result (rat HER3): binds
- binding result (human EGFR): binds
- binding result (mouse HER3): binds
- binding result (human HER2): binds
- Kd (His-tagged human HER3 [2]): 80900 pM
- % Parent (HE3 positive) [3]: 43.2%
B1: anti-HER3 clone 4-35-B2 IgG1 (antibody, V domains shown)
VH: EIQLQQSGPELVKPGASVKVSCKASGYSFTDYNMYWVKQSHGKSLEWIGHINPYNGGTTYNQKFKGRATLTVDKSSSTAFMHLNSLTSEDSAVYFCVSLRWGAMDYWGQGTSVTVSS
VL: QIVLTQSPALMSASPGEKVTMTCSASSSVSYMYWYQQKPRSSPKPWIYLTSNLASGVPARFSGSGSGTSYSLTISSMEAEDAATYYCQQWNSNPYTFGGGTKLEIKR
notes: Human-mouse chimeric IgG1/kappa

- kon (His-tagged human HER3 [4]): 188000 M⁻¹ s⁻¹
- koff (His-tagged human HER3 [5]): < 1e-07 s⁻¹
- Kd (His-tagged human HER3 [2]): < 1 pM
B2: anti-HER3 clone 10D1_c93 IgG1 (antibody, V domains shown)
VH: DVQLQEWGAGLLKPSETLSLTCAVTGYSITSGYSWHWIRQFPGNGLEWIGSIHYSGGTNYNPSLKSRITISRDTSKNQFSLRLSSVTAADTAVYFCARMTTAPRYPFDYWGQGTLVTVSS
VL: DIVMTQSPSSLSASVGDRVTITCKASQIVGSNVAWYQQKPGKSPKPLIYSASYLYSDVPSRFSGSGSGTDFTMTISSLQPEDVATYYCQQYSSHPLTFGPGTKVEIKR
notes: Humanised 10D1 variant, IgG1/kappa

- koff (His-tagged human HER3 [5]): < 1e-07 s⁻¹
- Kd (His-tagged human HER3 [2]): < 1 pM
- kon (His-tagged human HER3 [6]): 188000 M⁻¹ s⁻¹
B3: anti-HER3 clone 10D1_c87 IgG1 (antibody, V domains shown)
VH: DVQLQEWGAGLLKPSETLSLTCAVTGYSITSGYSWHWIRQFPGNGLEWIGSIHYSGGTNYNPSLKSRITISRDTSKNQFSLRLSSVTAADTAVYFCARMTTAPRYPFDYWGQGTLVTVSS
VL: DIVMTQSPSSLSASVGDRVTITCKASQIVGSNVAWYQQMPGKSPEPLIYSASYLYSDVPSRFSGSGSGTDFTMTISSLQPEDVATYYCQQYSSHPLTFGPGTKVEIKR
notes: as for B2

- kon (His-tagged human HER3 [7]): 147000 M⁻¹ s⁻¹
- koff (His-tagged human HER3 [8]): 6.01e-05 s⁻¹
- Kd (His-tagged human HER3 [2]): 410 pM
B4: anti-HER3 clone 10D1_11B IgG1 (antibody, V domains shown)
VH: DVQLQEWGAGLLKPSETLSLTCAVYGYSITSGYSWHWIRQPPGKGLEWIGSIHYSGGTNYNPSLKSRVTISRDTSKNQFSLKLSSVTAADTAVYYCARMTTAPRYPFDYWGQGTLVTVSS
VL: DIVMTQSPSSLSASVGDRVTITCKASQIVGSNVAWYQQKPGKSPKPLIYSASYGYSDVPSRFSGSGSGTDFTLTISSLRPEDVATYYCQQYSSHPLTFGPGTKVEIKR
notes: Humanised 10D1 variant, IgG1/kappa; also called v11b78L; C78 v11b

- kon (His-tagged human HER3 [9]): 97400 M⁻¹ s⁻¹
- koff (His-tagged human HER3 [10]): 0.00168 s⁻¹
- Kd (His-tagged human HER3 [2]): 17300 pM
B5: anti-HER3 clone 10D1_c85o2 IgG1 (antibody, V domains shown)
VH: DVQLQEWGAGLLKPSETLSLTCAVTGYSITSGYSWHWIRQFPGKGLEWIGSIRYSGGTNYNPSLKSRITISRDTSKNQFSLKLGSVTAADTAVYFCARGTTAPRYPFDYWGQGTLVTVSS
VL: DIVMTQSPSSLSASVGDRVTITCKASQIVGSNVAWYQQKPGKSPKPLIYSARYQYSGVPFRFSGSGSGTDFTLTISSLQPEDVATYYCQQYSSHPLTFGPGTKVEIKR
notes: Humanised 10D1 variant, IgG1/kappa; also called 10D1_c8502

- kon (His-tagged human HER3 [11]): 148000 M⁻¹ s⁻¹
- koff (His-tagged human HER3 [5]): < 1e-07 s⁻¹
- Kd (His-tagged human HER3 [2]): < 1 pM
B6: anti-HER3 clone 10D1_c76 IgG1 (antibody, V domains shown)
VH: DVQLQEWGAGLLKPSETLSLTCAVTGYSITSGYSWHWIRQFPGNGLEWIGSIHYSGGTNYNPSLKSRITISRDTSKNQFSLKLSSVTAADTAVYFCARMTTAPRYPFDYWGQGTLVTVSS
VL: DIVMTQSPSSLSASGGDRVTITCKASQIVGYNVAWYQQKPGKSPKPLIYSASYLYSDVPSRFSASGSGTDFTLTISSLQPEDVAEYFCQQYSSHPLTFGPGTKVEIKR
notes: as for B2
